Test results reported in patent US20230338526A1 (BIO THERA SOLUTIONS, published 2023).

What was measured:
[1] = target: T1, CD20 (human, UniProt P11836 1-297); test: binding to CD20+ cells; method and cell line not stated
T1 construct: whole, on cells; apoptosis assays used Raji and Wil2-s cells, depletion used healthy human whole blood; also called CD20 antigen; CD20 molecule
T1 sequence (looked up): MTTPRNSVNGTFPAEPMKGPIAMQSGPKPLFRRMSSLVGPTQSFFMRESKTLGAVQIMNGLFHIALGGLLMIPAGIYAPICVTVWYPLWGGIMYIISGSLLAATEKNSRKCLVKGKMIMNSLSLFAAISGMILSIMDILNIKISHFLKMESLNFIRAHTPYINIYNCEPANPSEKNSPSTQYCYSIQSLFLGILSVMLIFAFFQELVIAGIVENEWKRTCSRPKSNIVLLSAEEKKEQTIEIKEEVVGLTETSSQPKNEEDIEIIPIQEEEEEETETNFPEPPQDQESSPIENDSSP

[2] = target: T1, CD20; test: cell-based or functional assay
[3] = target: T1, CD20; test: cell-based or functional assay; remark: listed apart in the source

B1: Rituximab (antibody, V domains shown)
VH: QVQLQQPGAELVKPGASVKMSCKASGYTFTSYNMHWVKQTPGRGLEWIGAIYPGNGDTSYNQKFKGKATLTADKSSSTAYMQLSSLTSEDSAVYYCARSTYYGGDWYFNVWGAGTTVTVSA
VL: QIVLSQSPAILSASPGEKVTMTCRASSSVSYIHWFQQKPGSSPKPWIYATSNLASGVPVRFSGSGSGTSYSLTISRVEAEDAATYYCQQWTSNPPTFGGGTKLEIK
Q: For B1, which “Binding to CD 20^+ cells” value [1] is on record?
A: 10.2 nM

Q: And the “ADCC, PBMC method” value [2]?
A: 0.0496 nM

Q: And the “ADCC, Reporter gene assay method” value [2]?
A: 0.019 nM

Q: What about the “Percentage of whole blood B-cell depletion in vitro, 10 ng/ml” value [3] of the same binder?
A: 17.8%

Q: And the “Percentage of whole blood B-cell depletion in vitro, 50 ng/ml” value [3]?
A: 36%
